Results as given in paper PMC7335169.

Target: SAM complex (Sorting and Assembly Machinery complex) from Myceliophthora thermophila: Sam50, Sam35 and Sam37 (Myceliophthora thermophila)
Assay: cryo-EM structure; SAM complex in detergent GDN (0.02%), 20 mM HEPES pH 8.0, 150 mM NaCl; monomer and three dimer conformations, 3.0-3.9 Å; the authors call the dimers non-physiological

SAM complex (Sorting and Assembly Machinery complex) from Myceliophthora thermophila: Sam50, Sam35 and Sam37
stoichiometry N: 2
